# Laboratory results taken from the DeepSol protein solubility set.
# Experiment: soluble on expression in E. coli; label from the status in PepcDB or PDB records
row,Sequence,soluble on expression in E. coli
1,MVFYGQPVTDDSTIRLSGQGVNTAFSVNLQAINHDVQKIAFTATCDGNQTLSQLGNLSIQVELNGSVLMKGDVETQGRQEAALILGELYRRNTEWKFRFVAQGFNGGLKPLAEHFGVVVEDEPAAPTPVPTPVSTPAPTAPPVAKPINLSKVSLTKEKPVISLTKRDDFGEIRVNLNWHRGGGAPAKGFLQGIFNSNKGIDLDLGAFVALNDGSRGVIQALGNNFGSYHSEPYVQLQGDDRTGDVSDGEWMHINGREWKHVKEVLIFAFIYEGVPSWGSTDGIVTINVPGQAPIETQMNEGNDRKNMCAVARLVNESGNIKVERINRYFSGHKEMDEAFGWGFRWKAGSK,not soluble
2,MVGLADVAVLYSGGKDSNYALYWALKSGLRVRYLVSMVSENEESYMYHTPNVELTSLQARALGIPIIKGFTKGEKEKEVEDLKNVLEGLKVDGIVAGALASRYQKERIENVARELGLKVYTPAWEKDPYQYMLEIIKLGFKVVFVAVSAYGLNESWLGRELNYKNLEELKKLSEKYGIHIAGEGGEFETFVLDMPFFKAKIVIDDAEKFWDGLSGKFIIKRAHLEWK,soluble
3,MVHDTFMKMPEVRRRRQPTHVLVAGGNQGLGNMTAFLRAARTSTLFRYSVLCGANKQLYHEIASWQLPHIRPLPYINSPEEMNQLYDEADAVITKPGGVTISELLHKRIPIFTIDCLPGQERINWQYLRRNGLIYHLAEPGNGERKMIRLLTDDVEKNRFFRRVSDYFAGVEKTGLEHHHHHH,not soluble
4,MVHHDGTLQALITAYQKTPAFTDLAEATRKGYIRHIRQIEADFGDMPVQALADPRVRGEFLDWRDRLAQKSKRSADYAFSVLARILSWAHDRRKIPVNPCEKPGRLYTLEHHHHHH,not soluble
5,MVHTADNAWRAHIPLMYREDFLCSSGVARWNEEFPRHCVVSQHDRHKTKSVLVILFLIAMRNIKNNRGTFTRIKDRLSSALKSPASLFRRSPEISLREDILSWKKSPHSLAASEYGGSDLLVQFLKQQTSDDYVDFWLESGEYRWTRTKPGRKRDIEAQRIYDKFVYGECPRKIAHLEKMCFVSRQGPTGRDVFICAQAYVGTNFPKDSYKKFLQDPIYLNLLKTVSSGATQLNE,not soluble
6,MVIILRHVRVFNGVNECDIYLIGTAHVSKDSIEEVEKIISSVSPEGIAVELDDRRFFSLITNEEKKVDLKKVLKEGNFLKFFIYLILANSQKKIGESFGIKPGSEMKKAIEIASKYGLPIYLIDRDIDITLSRLMDRMTFKEKMKIFWELLNSDEEDLELDDDLLNDMVKNPEKFIKLLKEISPTIYEVLVDERDRFMAKRLFELSKNKNSLVAVVGAGHVEGIVRYLKKLENGNDIDLMELIKVKKRK,not soluble
7,MVIRSVSRFLQGNNWPDVSKIYKTIVEKWRNENPDQNAHFSLEVTGPTGTSGVVTVKPSEEIGKSEKVSEEKSSEKPSIEVATTSLKRYPPAHMRVRDKLVGILSASGLRIGLPSSVSLVFSRSDLGSATSSTERICASSQEVASTMSLPDPSQSGITDSFPRVFKEFDFLEAEHDSVSETADSCFGWLSTMRPTREKDDERASIRSSLRNLSSGGQGGEEEEEEPEEDEESESHEEEENSESDDLPRKVEDDDLEEEDEDEEERTPCPSECCDDDREDVEMMLRQDIEAYASRGGSVAASSMADDDLRSRLTNNIVSISSQMTEHRHLEEENTSVDGSSVCAYSNASMLASEYYPNRTRSLRIQCSHHLDSRIEREFSMSVNEINESNDCNLLAYGTLLSTQLYKSSCGKVCALLRDASHILTNRAMSRSFASAQETLCNVVDIPFLFVTEQFLRNSPICQRLKFTLNELKEHWETFDERRDQCQKNTTNFGRKYKLFEILDFRKKNLKGINSLRSAYKLSALGGSTSSFSLTSELDLGKLLNKLVFQVKLMIDALKDMSDAVKNSTSSQTYSLSPAILEHHRELLMCASDDAASSVNSSLSRLNIDDSISRSQHSCDSLVLLLANKRYTQALQAVRQLRRTYGEEYGCCETVDVDVLLLLFCRSHSLKAWALVGASSEELTRQSELLREANAELASCLRRNAQSLQNMERMTPSMGSASMTESFAQLPSSSDHYD,not soluble
8,MVKLTSIAAGVAAIAATASATTTLAQSDERVNLVELGVYVSD,not soluble
9,MVKQISVFVENKPGRLAAVTEVLMKHNINIRAFTIADAGDFGIIRMVVDKTDEAYQALKEAGFTVRLTNVLAVEVEDKPGALHRIAKALGDAGVNIDYVYAFTSEKHKALIIFRVDDREKAKEVLEKLGVLFKGEIN,not soluble
10,MVKRNKVIKQQSCPLIDTINVISRKWLLLVLNTIGNEGKLGFNSILNSIDDISPKALSDVLKTMEEMGLVKKVIVKSSPPRVEYSLTYEGKKLRKAVIPLFKWAAEHTGHYECPILQSNKLNKEEYS,soluble
11,MVLEVNQAIVNESLQTEQVMEQLSSTVDVIVDNIEKYTNAARYGKGNNYALNNLRTAVQNQFPLVDWLLSTSLSQMIENAWQNGSLPTVTDEDGNVYLKAPLNVFTTPPKDTKGECCWLPFDIAACGGKAPINILCLKDCVDMLNHLLDRKLKVQSNDLIGFFKQAGQTYEEVRDFMNRESMAFYTANTIVNGQLDVTTPILKKFHGLMEILKRPEVFKMQGTNILAAFDSIGYRMDVLGGSFIFAAHPLTVASIKNAIRPNRYGILPDGWTINGESIFYKGAQVLPDKTVPVDVENGTGVIWQLSGESVGVFLGTTLRPAEDYIIRNQFTTTNDVNKGCATECDIYYNLGSVVTNNVARLAVITDVPLAAGINAYSLANLLDRVYVETLAP,not soluble
12,MVLIDTEYVRAVVHNVGHRARCGVASKVRALKLAHSQARLRSYSQACERASYIDGRCEYYPSLDVASSSRNSEMLNSGFFDGYSWNTPNIQSQSSSDVTAKTELRRLMTETSEDPIHKEDSETLRRLIMWQEFRDAGVDVNTTQPGYGYGIEAKVEPFPQKLQNYESIHLETRRSSCPSFGTQLYNEPIYEGDEDPLGLGITPPVVTKTSGSLSNNGLDGINLNWKSIPAPVHQMQQHNANGDFVAAWPQNTIEKPTVGPLDKLQKQFEDIKLISISSGENTPTTRSKADEWLDDVLRVSMSMSPTSPSSDPPSTSSYSVLPKSGPPPAHAPPPLPVRQAVSNGSPSIYQQQLQQANSTRNSPAGINWNSSPNPMKISQPPAKPVDPFDVQWSRLAVNNTH,not soluble
13,MVLSRHVIITPCPDRPGTSILFSAKRGALILVDDELLAAIGAGGLDADEEQTLAELGFLVPDHDSEQQEMCSFVDESNRASRSFAALIILNLSCNLACSYCFEGNRRGAHFMDDDTADRLVAYLVSGPVAEGRSLSLRFYGGEPLLSVPTIRRIARPLKKVMDARGLSFSFSLTTNGTLLTRELVEELIPLGLVGATVTLDGPPDIHDAARPFVGGEGSFSVIFANLKAVADLIALEIGGNFTPETYREYPRLFDLLVAEGLGPERLALVRFNAVMSAGENRALPEFTGGCASVNEPWLKDATLFIREELLRRGFPAPGLSPHYCAIEAEDSLIVNHDGTFYRCPAFIGIEGLAAGSLDDGLSDHAASHGLGAWKNEECLSCAYLPLCFGGCRYYGYLEHGRIDRVSCGRDLFDAIVGPFLALEVKYRHQPGEDASDTDGDSD,not soluble
14,MVLYVPTYREDKADNRAIDKAYFEKCLPGYTLINKLHPSIEDSDIDDVSSIDTSTLMLMSDIIISDYSSLPIEASLLDIPTIFYVYDEGTYDKVRGLNQFYKAIPDSYKVYTEEDLIMTIQEKEHLLSPLFKDWHKYNTDKSLHQLTEYIDKMVTK,not soluble
15,MVMATRVKNVGNWRIMPDATLAASYQAYKRCQNRRPDKAFTPHPAISAPMPDATLAASYQACKMCQNRVGRIRRSRRIRQLEHHHHHH,not soluble
16,MVMSFIKYPLPESVLQATEQRIQWVMDNFSRICVSFSGGKDSTVMLHLTAQAARLQGKKICVLFIDWEAQFSCTIAHCEKLRALYADVIETFYWVALPLTTQNALTQYKPQWQCWEPGTEWVRQPPPWAITHPGYFSFYQPGMSFEAFVSHFAEWFSQRRPAAVLVGIRADESLNRFMTISSQRKQRFADDKPWTTSAPGGHAWYIYPLYDWKTADIWTWFAKSGEPYNPLYDLMYQAGVPLRYMRICEP,not soluble
17,MVMSKYTQEQIKNLVEGNLDWNTVLKMLSMPKDHERFQMYLKVLQDKVDFDDKIVLPLGPHLFVVQDAQKKWVIKCSCGHAFCAPEENWKLHANIYVRDTAEKMEEVYPKLLASDTHWQVYREYICPDCGILLDVEAPTPWYPVIHDFEPDIEVFYKDWLGIQPPERR,not soluble
18,MVNLELIEVQEGKAKILIPKAESIYDSPVFYNPRMALNRDIVVVLLNILNPKIVLDALSATGIRGIRFALETPAEEVWLNDISEDAYELMKRNVMLNFDGELRESKGRAILKGEKTIVINHDDANRLMAERHRYFHFIDLDPFGSPMEFLDTALRSAKRRGILGVTATDGAPLCGAHPRACLRKYLAVPLRGELCHEVGTRILVGVIARYAAKYDLGIDVILAYYKDHYFRAFVKLKDGARKGDETLEKLGYIYFDDKTGKFELEQGFLPTRPNAYGPVWLGPLKDEKIVSKMVKEAESLSLARKKQALKLLKMIDQELDIPLFYDTHAIGRRLKIETKKVEEIISALREQGYEATRTHFSPTGIKTSAPYEVFIETIKRI,soluble
19,MVNLTRIYTRTGDKGTTALGDMSRVPKTDLRISAYADANEANAVIGTAIALGGLPEEVVKVLVRVQNDLFDVGADLSTPVVENPEYPPLRVEQFYVDKLEADCDRYLAEVEKLRSFILPGGTAGAALLHQACTVVRRAERSTWAALEAHGETMNPLTATYLNRLSDLLFILARVANKEVGDVLWVPGGERLEHHHHHH,soluble
20,MVNPEEQPISILFLGIDDNDGRRKKGQDAEHSRSDAMILTTFNQSKHQIRMLSIPRDTISYIPKVGYYDKITHAHAYGGPIAAMDSVEATMNVPVDYYVRVNMKAFVEAVNELGGIYYDVPYDLNEPNTDDTGKIKIKKGYQKLNGDEALAVARTRHHDSDLKRGQRQMELIKILFQKAQEVDSIDKLDNVIQIVGKNAKHNLTNSEIKALAKMYLTNDVEIKTAQLKGKDDMLNGIYYYHPSVESIQKYANLLRKDLELSPINDKNDFLDQRVINHYGSLIPLTPLDSSLLRKEQNDTTDKDKTSNENNDSTNNSDSSNQQQPATDQNLNQNQGGTQQAPQASNNQNGVVNLEHHHHHH,soluble
21,MVNQPLVSIIIPAYRAENTIAFTVRSVLAQTYDHWQVAIGVDDQVDYLQLLAEQGINDPRLKQVFTGGIGSGEAIARNKAVSICDGDILANLDADDAFASDRLEKLVPLAEKYGVAIDNTGVYNSELVLYKQPFPQRQALNFATAADILSPRIPFFPVFQRQLLGDGWTKVPFAADVLFNLELLSRTEKVAIHPEPLYRYYKRDNSITQSANAFETAEKAYLTILSLLDEGALTLTDAIRQAARQEFSENLALNKVFRRYMEEGRCQNLEQFLDMTNNGQKIEFVSNLNLEHHHHHH,soluble
22,MVPEVFAQARLRMDQLTKPPRALGYLEEVALRLAALQGRVKPELGRGAVVVAAADHGVVAEGVSAYPQEVTRQMVLNFLRGGAAINQFALAADCAVYVLDVGVVGELPDHPGLLKRKVRPGTANLAQGPAMTPEEAERALLAGREAARRAIAEGATLLAAGDMGIGNTTAAAALTAALLGLPPEAVVGRGTGVGEEGLRRKRQAVARALARLHPGMGPLEVAAEVGGIELVAIAGIYLEGYEAGLPLVLDGFPVTAGALLAWKMAPGLRDHLFAGHLSREPGHRHQLEALGLRPLLDLDLALGEGTGAVLAMPLLRAAARILHMATFQEAGVSRG,soluble
